The series deals with the molecule itself. The series is described as follows: MALS / size exclusion chromatography. The text has this: FIG. 3(a) Generation of a CFHR5 protein lacking critical amino acids within the dimerisation motif. Monomeric CFHR5 (CFHR5^{dimer mutant}) was generated by mutating the three stabilizing amino acids (Tyr34Ser, Ser36 Tyr, Tyr39Glu) within the dimerisation motif to the corresponding amino acids within CFH. FIG. 3(b) Analysis of recombinant CFHR5 and CFHR5^{dimer mutant} using SDS PAGE gel electrophoresis. Both the wild type and dimer mutants were purified to single homogenous species as visualized by denaturing electrophoresis. FIG. 3(c) Analysis of recombinant CFHR5 and CFHR5^{dimer mutant} using size exclusion chromatography. Size exclusion chromatography was performed on a Superdex200 10/30 column (GE Healthcare) equilibrated in 50 mM Tris.HCl, pH 7.5, 150 mM NaCl at 0.4 ml/min. The column was followed in-line by an Optilab-Rex refractive index monitor (Wyatt Technologies). The CFHR5 dimer elutes early from the column (blue trace) whilst the monomeric CFHR5^{dimer mutant} protein elutes at a larger column volume (red trace). FIG. 3(d) Interaction of CFHR5 and CFHR5^{dimer mutant} with renal-bound mouse C3 in vivo.
The inventors next explored the functional consequences of dimerisation. They predicted that dimerisation would enhance ligand interaction through avidity. To test this they generated monomeric and dimeric CFHR5 proteins. […]

B1: CFHR5 dimer mutant (Tyr34Ser, Ser36Tyr, Tyr39Glu) (other)
chain: EGTLCDFPKIHHGFLYDEEDYNPFSQVPTGEVFSYYCEENFVSPSKSFWTRITCTEEGWSPTPKCLRMCSFPFVKNGHSESSGLIHLEGDTVQIICNTGYSLQNNEKNISCVERGWSTPPICSFTKGECHVPILEANVDAQPKKESYKVGDVLKFSCRKNLIRVGSDSVQCYQFGWSPNFPTCKGQVRSCGPPPQLSNGEVKEIRKEEYGHNEVVEYDCNPNFIINGPKKIQCVDGEWTTLPTCVEQVKTCGYIPELEYGYVQPSVPPYQHGVSVEVNCRNEYAMIGNNMITCINGIWTELPMCVATHQLKRCKIAGVNIKTLLKLSGKEFNHNSRIRYRCSDIFRYRHSVCINGKWNPEVDCTEKREQFCPPPPQIPNAQNMTTTVNYQDGEKVAVLCKENYLLPEAKEIVCKDGRWQSLPRCVESTAYCGPPPSINNGDTTSFPLSVYPPGSTVTYRCQSFYKLQGSVTVTCRNKQWSEPPRCLDPCVVSEENMNKNNIQLKWRNDGKLYAKTGDAVEFQCKFPHKAMISSPPFRAICQEGKFEYPICE
notes: also called monomeric CFHR5
As to B1, the binding result is listed as “no binding”.

Source of the values: patent US20150361183A1 (IMPERIAL INNOVATIONS, published 2015).
